Data: article PMC3791895 (mBio, 2013)

Molecular target: the molecule itself
Assay: SEC

B1: Enterococcus faecalis FabI enoyl-ACP reductase (enzyme, UniProt Q820V5 1-250, looked up)
chain: MFLQNKNVVVMGVANKKSIAWGCAKALKDQGANVIYTYQNERMKKQVVKLADENDLLVECDVASDASIQAAFETIKNEVGTIDGLVHAIAFAKKEELSGNVSDITRDGFLLAQDISSYSLLAVTHYAKPLLNPGSGIVTLTYLGSERAIPNYNMMGIAKASLETAVKYLAFELAADKIRVNGISAGAIKTLAVTGVKDYDQLISISNERTPDKTGVTIEEVGNTCAFLVSDLASGVVGDIIYVDKGVHLT
For B1, the “stoichiometry N” value was 2.
